In patent US20090304580A1:

Target: PAM4 antigen (human pancreatic cancer mucin, CaPan1) (human)
Assay: ELISA on target mucin antigen (FIG. 9)

B1: monovalent bsPAM4 chemical conjugate (PAM4-Fab′ x anti-DTPA-Fab′) (bispecific antibody, part only; not given: Anti-DTPA Fab′ and constant parts, V domains shown, part only)
VH: QVQLQESGPELVKPGASVKMSCKASGYTFPSYVLHWVKQKPGQGLEWIGYINPYNDGTQYNEKFKGKATLTSDKSSSTAYMELSRLTSEDSAVYYCARGFGGSYGFAYWGQGTLITVSS
VL: DIQLTQSPAIMSASPGEKVTMTCSASSSVSSSYLYWYQQKPGSSPKLWIYSTSNLASGVPARFSGSGSGTSYSLTISSMEAEDAASYFCHQWNRYPYTFGGGTKLEIKR
Binder B1 has an EC50 of 30.6 nM.
